{"source": "the DeepSol protein solubility set", "data": [{"test": "soluble on expression in E. coli; label from the status in PepcDB or PDB records", "values": [{"sequence": "MTDNSKIRVVVGMSGGVDSSVTALLLKEQGYDVIGVFMKNWDDTDEFGVCTATEDYKDVAAVADKIGIPYYSVNFEKEYWDRVFEYFLAEYRAGRTPNPDVMCNKEIKFKAFLDYAMTLGADYVATGHYAQVKRDENGTVHMLRGADNGKDQTYFLSQLSQEQLQKTLFPLGHLQKSEVREIAERAGLATAKKKDSTGICFIGEKNFKQFLSQYLPAQKGRMMTIDGRDMGEHAGLMYYTIGQRGGLGIGGQHGGDNQPWFVVGKDLSQNILYVGQGFYHEALMSNSLDASVIHFTREMPEEFTFECTAKFRYRQPDSHVAVHVRGDKAEVVFAEPQRAITPGQAVVFYDGKECLGGGMIDMAYKNGQPCQYI", "soluble on expression in E. coli": "not soluble"}, {"sequence": "MTDPSSSPIRPDMVEAARKFMLTPKVKETPFEEQRQFLLGKGVSEAEILEARASIPPEQLRSQIGTENMIPIGGHPQMMIAPKQNGIVSFAQSAVVLGSISYAGYRFVRSYVLPRFFDIPDPATEEIRQLQSQVDDLQNSIKFIMDSVSQTTQQLATQQSEISRALYSVANRDADLNRVESGISTIKSLLLSQHNFAPIVTPSVTSSIPSWQQSATPTSATSITTTTTSEAASGYATPPANFKESSLADELADIENIE", "soluble on expression in E. coli": "not soluble"}, {"sequence": "MTDQLQHIRKPPRTGKAARSGTQDEIVYAHIFDAILEQRLAPGTKLSEEALGEIFGVSRTIIRRALSRLAHEQVVLLRPNRGAVVASPSIDEARQILFARRTVERAITELATDNATAERLAEL", "soluble on expression in E. coli": "not soluble"}, {"sequence": "MTDQMRDMIAQLMGSQHVDNKEKPSMPFDHHSVCRAFLLGVCPHDMVPDSRLQNVVSCRKVHEPAHKADYERAQKEKDHFYDVDAFEIIEHAVHLVDIEIAKVREKLEDDVKTQTSQAADSKAKQVAEIEEKIAKNVDDIEKLGNEGKIEESMKLHKYVEELREKIQEIEDSQTEVKTAGPGSNSAKLRVCEDCGAQLNITDHESRIADHYNGKMHIGMVETRETYLKMKETIDERRKEREEKLGSQRGYQRRESYGRRDRGGDRGEYRGDRDRDRRNRDRSRSRDRSYRRDDRGDRRYDRDNRDRRDRDRRY", "soluble on expression in E. coli": "not soluble"}, {"sequence": "MTEAIHCIGCGAIIQTENPHELGYTPKTAFEKGMETGEVYCQRCFRLRHYNDIQDVQLTDDDFLRLLNGLGTEDALIVNVVDIFDFNGSLIPGLHRFIGDNPVLLVGNKVDILPKSLKKPKMVQWMRERAHEAGLRPVDVLLTSGKKPQEMQELLDTIEKYREGRDVYVVGVTNVGKSTLINQIIQQTVGVQDVITTSQFPGTTLDKIEIPLDDGHFLIDTPGIIHRHQMAHYLGKKDLKIIAPQKEIKPKVYQLNAEQTLFLGGLARFDYVQGAKSSFIAYVSNDLKLHRTKTATADAFYEKHVGGLLQPPRADEVAEFPELVRFEFSVKEKTDIVFAGLGWITVTEPGVVAGWAPKGVDVLRRKALILEHHHHHH", "soluble on expression in E. coli": "not soluble"}, {"sequence": "MTEKKSDRTAAKKRSEQAVHELVTRIDTHPGDADAYYELATVLVDLKSFAQAEELLMKALGLFQAQPAVVDKLHYGLGNVYYAAEDYPKAIQQFDSLGAQWKGAGYLMLAQSYMANGDHKRALAFALTALASQPDDVATLQVVAENLLALGNMAQAAQYYDQLLAIDPKNGRAIFDRGLVAMVQGTPYADYFERAQTLDPQYFEQGQQRLADIEKFMQQTPDSDQQLEHHHHHH", "soluble on expression in E. coli": "soluble"}, {"sequence": "MTEKTTVKTLKDVVVRFCGDSGDGMQLTGTIFSDLSAVFGNTISTFPDYPAEIRAPQGTLGGVSGFQVHIGTDLVRTPGDLADVLVAMNPAALKVNRTHVRRDSIIIIDSDSFMASDLEKAEIASEDFMTELGLTTQELFTVPISSMVKKSTAEFGLDVKAALRCKNMFALGLVCWLFDRPTQHAIDYLNRKFGKKEAILNANIKALADGFNYGHNTHATATTYRIEGRKQTPGVYMDISGNKATAYGLVAAAEHANLNLFLGSYPITPATDILHELAKLKSLGVKTVQAEDEIAGICTAIGVSFAGDLAVTTTSGPGLALKSEALGLTVMAELPLVLVDVQRGGPSTGLPTKSEQTDLLQALFGRNGESPIPVIAATTPSDCFDSAFWACKIALEHMTPVILLTDAFIANGSSAWRIPDPQSYPDIRPPYVDQYKGEAKWRPYFRNEETHVRYWAIPGQEGFQHRLGGLEKDYVTGAISTNPENHAKMVATREAKVQAIAQDIPDLEVHGDKDDAELLIIGWGGTYGHLYETMERMRNAGKKVALAHFRFINPLPKNTAEVLQRYPKAVVAEQNLGQFALYLRGEVPGFHPLQFNRVTGQPLVMSEMVEVFTQMMEEK", "soluble on expression in E. coli": "not soluble"}, {"sequence": "MTELLVTPKSLSHMETLIDLGADAFVIGEQKFGLRLPGEFNRQQMTEAVALAHKNDKKVYAAVNGLFHNYHLDAVEDYINFLHEIRVDRIIFGDPAVVMYVKAQENPIPLHWNAETLVTNHFQCNYWGKRGASRAVLARELNLDEIINIKENSNVEIEVQVQGMTCMFQSKRMLLGNYYTFQDRQMKIERRNDEQSLLLYDEERQNNYPVYEDYNGTHIMSPNDICLIEELAPFFEAGIDSFKIDGILQTEEYINVVTEQYRQAIDLYNEDPEIYEDEKFMLMDPIEEIQPDHRPFDEGFLYKQTVY", "soluble on expression in E. coli": "not soluble"}, {"sequence": "MTEQLFDSLAKQNGFRVLSGGKYGGNNGFDHVWQAADGSVVLIVESKQIRNGTVQLNPNGAGGYTQMSREWIKQVVKSLPDGSPAKAVVLKANQNGKLKTAIAGVDRQTGKAVILSVKVPSKTNIRR", "soluble on expression in E. coli": "not soluble"}, {"sequence": "MTESDLRTHATEIHEQFSDQLEIDVDDVIERLDTLVNDYQVPISEARRSVVNTYLDEAGMDRDQLGGGDGGGNEQVNVADVDAPEEWVDVRATVVELWEPRADAVAQVGLLGDETGTIKFTKWSKSDLPSLEEGKSYALRNVVTDEYQGRFSVKLNRTTTIEELDEAIEVGDDSVEADGALVDIQSGSGLIKRCPEDDCTRVLQNGRCSEHGEVEGEFDLRIKGVLDDGEEVTEVIFDEDATEELTGIALEEAKEMAMDALDTTVVADEMRQKILGRYYRVRGPTFGRYLLADEQERLTGAVDADEILIKARSILEHHHHHH", "soluble on expression in E. coli": "not soluble"}, {"sequence": "MTETEQEAFADLVAELETQTAEAVKAFSKVFDRMEETNDDKEGLSLLKLKNYEMTAYLGELTVLMSKMMKGESITVEPSVKRALKHRVFIEKMKPVEDKMKPQIEKLLGRSSAESGASNGSSKGNHRVRLDNMDVEGDEEEEEEDEDDEEGKGAKEVKKYVAPRIRAVRYEEEDEAPNKQQEKAKRRAMQSSLIMELKNQYSDAPEEIREMSEKKYQYDRERERYEEDNFTRIRLNKDQKRRSEQLGRSETLDDLLSFGDYMMRGEDGRALSEGNKRKRATSSGAGGDTKRHKKSQKERKKAAKGKKEGRKRAIRRRQ", "soluble on expression in E. coli": "not soluble"}, {"sequence": "MTEVVLHIYDVTNSGSEKTNNTIVQINRFFKDGIGLGGIFHSAIQVYGNDEWSYGYCELGTGVFSCPSGKNPMYTYREKIVLGKTDCTIFMVNQMLRELSREWPGHTYDLLSKNCNHFCDVLCDRLGVPKIPGWVNRFANAGDTALEVAGNTAMRMKQAKTELVSASKVAYRFLSNVTSNVTNGSNGSPQRPGTLNNSDSGNLRLQGSWLKGLLNTAKPSTSTEIGNKDEDANHAVTNQKKQSRDSDVLLFQ", "soluble on expression in E. coli": "not soluble"}, {"sequence": "MTFEEYQKEAQKTALYPEAYRLVYPALGLAGEAGELANKVKKVLRDHGGRLSEEAREAILAELGDVLWYVAQVATDLGESLEAVAQANLAKLRSRKERGRLGGDGDDR", "soluble on expression in E. coli": "soluble"}, {"sequence": "MTFEMLYSKIHRATITDANLNYIG", "soluble on expression in E. coli": "soluble"}, {"sequence": "MTFLIPAYNEEKSIGPLIDRIKMLCPDSEIIVVDNNSSDRTSEIATSRGVRVIFEGKQGKANAMVAAFRNTRTEYAVMMDADLTYLPDDSRVLVEVLKAEGADVVLGSRLNGEKEDGAISRINTVGNHILSFTASILYSPVSDVCTGHWAFNRRAIRHILEEGLNYSGFELEAEMFSKLARAGLKIVEVPITYRKRSDEPKLSSFTDGFKIFRTLVLERLRLEHHHHHH", "soluble on expression in E. coli": "not soluble"}, {"sequence": "MTFQNKKILVAGLGGTGISMIAYLRKNGAEVAAYDAELKAERVAQIGKMFDGLVFYTGRLKDALDNGFDILALSPGISERQPDIEAFKQNGGRVL", "soluble on expression in E. coli": "not soluble"}, {"sequence": "MTFSDPMDPSIPIFQHHEEEEAGPSTTIKAEEEDGPCCLVCGRVANTGHHYGVTACLGCKTFFRRVVLQKNSPKCKYKNHCRLEKSVNAKRLCRSCRYQKCLEVGMTEDALHPCRDVIGRRVRNNSSDSSPISSPPSIPTPLSICKLMNLSEGDHKLLQTITDMDTDIRTRTAHILGEPANGNEQIHFYSPTPDYTNVIVNHGIGPSLKVDILLLREWVDRIPGFRELSERFQQHLMHRFCLRYTVIEHGLFTAQMPYHKNVWFLSDRTCLVSEFENLPQEIKKHLTPKVINEQQLLASFTEMLIHEVADPLRRLKPDSVEVATVKTLMLLKPTCLREIDGDYLSTETDIKSVNDVRNRVINGLYSHYIKNGMDPEQLPIRVSEILNLTGGVEQCAARALEEMHPTRVFNLSSFDPYSSNVIFGYYRDV", "soluble on expression in E. coli": "not soluble"}, {"sequence": "MTGALAMMPSTSSPYPLLAPPTCSSRLPPLRCFVGLRWSAPRIQVREYPDAVAGIAKGAGGRGGRFRAPASSISQPCSRTIIITNEHVQNADFPPNYSKREKKPFPIPVLELRRRAKERAKKAEGKPKRSLPPPKNGMLIKRLIPVAYKVYNARILLINNLKRLMKVIPVKGCKHCSEIHVGSVGHPFRTCKGMSSDKRRGQHDWGGTLVEAVFVPVEAYHLEDRLGKRIPHDQRFAVPRIPALVELCIQAGVNLPEYPTKRRRKPIIKIGKNEFVDANEDDLPDPEPYKLEHPILEELNDNEIIAPASPEEIVALAEETLEAWEVVRDGALKLMKGYAVRVCGYCPEVHIGASGHKARNCGAFKHQQRNGQHGWQAAVLDDLIPPRYVWHLPESGEDLQRDLKSFYGQAPAIVEICVQAGAKVPEKYKATMRLDIGIPTSLREAEMVV", "soluble on expression in E. coli": "not soluble"}, {"sequence": "MTGIREGEKELSLLGSKTEYRNDYAPEVLEAFTNKHQENDYWVRFNCPEFTSLCPITGQPDFATIYINYIPDVKMVESKSLKLYLFSFRNHGAFHEDCVNIIMKDLIALMQPRYIEVWGDFTPRGGISIVPFCNYGKPGSRYELLAEKRMETHH", "soluble on expression in E. coli": "not soluble"}, {"sequence": "MTIAYEHPNALTYLKSMKENIIRFANKKSLYTQHDEYIKNVFMDERVNLKYHCESIVSYIAEAFIHYSVWDHSHAYYPGRPSQQTARTDALEGTSRTLPTLAAWLHANGRSNTIITGLNQQPILVPEILRKAFLAGTNPQHKGYWGTLHHCDQRVCEGADLALALWMSKEWVWDCFSIDEKCQIITWFKQVNQCETVDNNWHLFVLTVQIVLKALTGEDEVQYDKYERVKEFYVGDGWFRDGAKGNYDYYNAWAFHYSLYWFTQIDVDFDSTFINNALSDFVGNYRYFFGKEGFPFFGRSACYRLAAAAPLLAAVDLQSDKITIGEAKRAFHCNLKYFISNGALKAGLPTQGLFDEDVRLVDNYSGPASSLWSLRALNIALFCGEKINLWQAEEAPLAIEQGNFELDISAINMKILGVYETQEVIAIFKNEYTQDQSPLSRRLLAPSLEHHHHHH", "soluble on expression in E. coli": "soluble"}, {"sequence": "MTIPEQNNNPIVEISIPVSTQQALEKVNATKSAWLEARRQQKAAADNIATIRQRRAEMEATTNALNEEWRTLFRESQGVVSKEMKKLRTEIALGRETLEDFDELLAAQESENALLPQEAAELAGKYIHAHDTLVGIRAKQIWEDFMQSHGKALIQTLSLLKSTMGREASAVVGVVHSVNDPDTLLKDFIHKHITRPALTNDAMPEQDPVFKLAGVAPDYAARLDFSNKLSPAAMHKMKVRQERAEKEKAV", "soluble on expression in E. coli": "soluble"}, {"sequence": "MTIRMIPHPIFSSPTKRRREKPDPPARAGAAQPSGPARMTPQQQTEWQQRLIALLESQPPDDDGAHDLSHLHRVWAVARTLLAHYPDADSIVVMAGSYLHDLVNLPKNHPQRQLASHWSAERARQLLADSGLTEAQLDNLAHAIEAHSYSAAIPPRTLEARIVQDADRMDALGPVGLARMFYVSGRMGRALAHPLDPLAEHRGRDDQAWAIDHIDVKLAKLPGMMQTEAGRAMAERKLEWLFHFRDEFCRDWMARLEHHHHHH", "soluble on expression in E. coli": "soluble"}]}]}
